Data as given in patent US11426447B2, “Neuregulin for the treatment of tumors of the nervous system” (LEIBNIZ-INSTITUT FUR …, priority 2016, dated 2022).

How the values were obtained:
[1] = Serum levels of rhNRG1 after intraperitoneal injection (Nrg1 ELISA kit); format: in vivo, mice; settings: single intraperitoneal injection, 10 μg per kg body weight, pooled blood
Experimental: To measure peripheral exposure of rhNRG1 in mice, up to 50 μl blood was sampled from mice for four consecutive days via bilateral retro-orbital plexus and facial veins. For serum preparation, collected blood was allowed to clot at room temperature for 1 hour before spinning for 20 minutes at 2,000 g.
Blood serum levels of rhNRG1 before and after intraperitoneal injection were measured using a commercially available kit according to manufacturer's instructions (#ab100614; Abcam; USA).
(§1) Crush injury-induced schwannoma formation was provoked in 2-month-old mice. Subsequently, administration of rhNRG1 was performed both systemically (by intraperitoneal injection) and locally (by rhNRG1-containing absorbable collagen sponges (ACS)). Vehicle saline solution was given to control animals. In order to assess the bioavailability of intraperitoneally injected rhNRG1 (10 μg per kg body weight), rhNRG1 serum levels were evaluated. Strikingly, rhNRG1 levels reached a peak 2 days after injection (FIG. 1B). […] A significant decline in body weight at the chosen dosage was, however, not observed (FIG. 1C).

[2] = Body weight and tolerability of systemically treated animals; format: in vivo, mice
Experimental: A, Schematic representation of the protocol used to assess the efficacy of rhNRG1 treatment on schwannoma growth after experimental sciatic nerve crush injury. B, Serum levels of rhNRG1 after single intraperitoneal injections of 10 μg rhNRG1 per kg body weight measured in pooled blood (n=4 animals; median). C, Body weight of animals receiving (genotype and treatment as indicated) was determined over 13 weeks.
as §1

intact nerves = assay: Morphometric analysis of nerve sections: myelin thickness of non-crushed, intact nerves; format: in vivo, wildtype mice; settings: long-term treatment over 8 weeks, vs PBS control
Experimental: Analysis of axon calibre, myelination thickness and solidity factor was conducted on semi-thin and ultra-thin sections of the sciatic nerve removed from transcardially perfused mice. Mice were perfused with a solution containing 3% paraformaldehyde and 3% glutaraldehyde in 0.1 M phosphate buffer (pH 7.4). Sections were postfixed for 1 h and kept in fixative including 3% sucrose. Sections were obtained from the distal part of the sciatic nerve. Sectioning and staining were performed as described. Images of toluidine blue-stained semi-thin sections were taken using an Axioskop 2 MOT (Carl Zeiss, Germany) equipped with a 100× immersion oil objective and an Olympus XC50 digital camera (Olympus, Germany). Standardized settings for camera sensitivity, resolution (2,576×1,932 pixels) and brightness of illumination were used for all micrographs. Ultra-thin sections were analysed with an electron microscope (EM910, Carl Zeiss) equipped with an integrated TRS 1K digital camera (Carl Zeiss). Image analysis was conducted with ImageJ version 1.48u. RGB colour images obtained from semi-thin sections were split into single channels and the green channel was chosen for measurements. The image was contrasted using the auto function. Axon and myelin were circumscribed manually by the freehand selection tool. Based on the measured areas, the thicknesses of the axons and myelin sheaths were calculated. […]

pre-existing schwannomas = assay: rhNRG1 treatment of pre-existing schwannomas: maximum sciatic nerve diameter; format: in vivo, Nf2flox;P0-Cre;Nefh-Cre mutant mice; settings: 3 months untreated, then 3 months systemic rhNRG1, vs vehicle
Description: A, Schematic representation of the protocol used to assess the efficacy of rhNRG1 treatment on pre-existing schwannomas. B, Quantification of maximum sciatic nerve diameters 3 and 6 months after nerve crush injury. Nf2flox;P0-Cre;Nefh-Cre mutant mice received either saline injections (vehicle) or intraperitoneal administration of rhNRH1 (** P<0.01 for differences between vehicle and rhNRG1-treated animals; n=6 animals per genotype; mean±SEM).
Three months after crush injury the right sciatic nerve of all animals was exposed surgically in order to assess sciatic nerve diameter as indicator for tumour size. Documentation was performed by video-assisted microscopy for each animal. Selected frames from the video files (using VirtualDub 1.6.19 software) were used to determine sciatic nerve diameter using ImageJ.
Two cohorts of animals underwent crush injury-induced schwannoma induction at the right sciatic nerve as described above (FIG. 5A). […] Then knockout animals (Nf2flox;P0-Cre;Nefh-Cre mutant animals) received either systemic rhNRG1 treatment or vehicle control applications for three months (FIG. 5A). […] (FIG. 5B)

B1: rhNRG1: EGF domain containing 7 kDa protein of recombinant human Neuregulin 1, purchased from Reprokine (#RKQ02297) (protein, listed as Homo sapiens)
chain: SHLVKCAEKEKTFCVNGGECFMVKDLSNPSRYLCKCPNEFTGDRCQNYVMASFYKHLGIEF
time of peak rhNRG1 serum level after injection [1]: 2 days
tolerability ([2]; 10 μg/kg, Nf2flox;P0-Cre;Nefh-Cre animals): well tolerated
significant decline in body weight ([2]; systemic treatment at chosen dosage (10 μg/kg ip every other day), weighed weekly over 13 weeks): not observed
impact on the microarchitecture of intact nerves (myelin thickness, g-ratio) (intact nerves): no obvious impact
tumor size (maximum sciatic nerve diameter) (pre-existing schwannomas): markedly smaller
